In PMC3302947 (Biochemistry, 2012):

Biological target: the molecule itself
Assay: AUC

| Protein | stoichiometry N |
| --- | --- |
| ITPKKIKPPLPSVTKLTEDRWNK (domain or fragment) [MBP-Vif(154–176)] | 2 |

Biological target: the molecule itself
Assay: AUC
Remark: another data set of the same source

| Protein | binding result |
| --- | --- |
| MBP-Vif(101–176)_(PPPP) (domain or fragment) not shown | binds |
| MBP-Vif(101–176)_(PPGP) (domain or fragment) not shown | binds |
| MBP-Vif(101–176)_(AALA) (domain or fragment) ELADQLIHLYYFDCFSDSAIRKALLGHIVSPRCEYQAGHNKVGSLQYLALAALITPKKIKAALASVTKLTEDRWNK | binds |
| MBP-Vif(101–176) V166S (domain or fragment) not shown | binds |

Biological target: the molecule itself
Assay: AUC
Remark: another data set of the same source

| Protein | percent monomer at 10 μM [%] |
| --- | --- |
| MBP-Vif(101–160) (domain or fragment) ELADQLIHLYYFDCFSDSAIRKALLGHIVSPRCEYQAGHNKVGSLQYLALAALITPKKIK | < 30 |
| MBP-Vif(101–172) (domain or fragment) ELADQLIHLYYFDCFSDSAIRKALLGHIVSPRCEYQAGHNKVGSLQYLALAALITPKKIKPPLPSVTKLTED | < 30 |
| MBP-Vif(101–192) (domain or fragment) ELADQLIHLYYFDCFSDSAIRKALLGHIVSPRCEYQAGHNKVGSLQYLALAALITPKKIKPPLPSVTKLTEDRWNKPQKTKGHRGSHTMNGH | < 30 |
| MBP-Vif(101–165) (domain or fragment) ELADQLIHLYYFDCFSDSAIRKALLGHIVSPRCEYQAGHNKVGSLQYLALAALITPKKIKPPLPS | < 30 |
| MBP-Vif(101–176) (domain or fragment) not shown | < 30 |
